Source: US20250011363A1, “OPTIMIZED SHORTENED PEPTIDE THAT BINDS TO ACETYLCHOLINE RECEPTOR, AND USE THEREOF” (SKINMED CO., LTD., priority 2021, published 2025)

Each substance was assayed against acetylcholine receptor (Homo sapiens, UniProt P02708) (assay: SPR binding affinity (RU) of optimized 5mer/6mer/7mer peptides, Examples 6-7). Conditions: 6mer-1 Top sequence; SPR; peptides tested at 10 μM.
Outline: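 Binding response (RU) to the human acetylcholine receptor was measured by SPR. Each 5mer or 6mer library peptide was applied at 10 μM, with sequences drawn from top and bottom amino-acid combinations.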

Sequence of acetylcholine receptor (P02708 21-457): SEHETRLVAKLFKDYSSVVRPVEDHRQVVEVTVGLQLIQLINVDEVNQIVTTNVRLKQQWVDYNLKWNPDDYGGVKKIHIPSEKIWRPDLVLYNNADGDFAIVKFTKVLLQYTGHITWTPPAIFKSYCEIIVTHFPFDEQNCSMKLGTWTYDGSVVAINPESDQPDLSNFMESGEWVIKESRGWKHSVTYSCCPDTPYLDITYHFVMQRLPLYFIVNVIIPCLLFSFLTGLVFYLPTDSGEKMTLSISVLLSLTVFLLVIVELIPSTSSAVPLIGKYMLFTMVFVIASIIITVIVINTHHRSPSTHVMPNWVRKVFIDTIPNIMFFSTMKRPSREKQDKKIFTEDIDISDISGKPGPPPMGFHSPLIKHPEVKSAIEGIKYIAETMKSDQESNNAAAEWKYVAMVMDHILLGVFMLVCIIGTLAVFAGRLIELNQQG

Substance | Binding affinity [Ru]
6mer-1-268 (KRRQSK) | 144
6mer-1-211 (KKQLLR) | 123
6mer-1-389 (RKLFCK) | 125
6mer-1-381 (RKGFYR) | 124
6mer-1-228 (KRVIYK) | 139
6mer-1-207 (KKSQQR) | 151
6mer-1-386 (RRSYQK) | 127
6mer-1-254 (RKSLSK) | 137

Same assay, conditions: 6mer-2 Top sequence; SPR; peptides tested at 10 μM

Substance | Binding affinity [Ru]
6mer-2-148 (KGQYKK) | 145
6mer-2-174 (KLLRKR) | 142
6mer-2-40 (RRYRKK) | 153
6mer-2-123 (RQFTKR) | 146
6mer-2-137 (KVFCKK) | 135
6mer-2-67 (KLFCKK) | 124
6mer-2-152 (RQFYKR) | 139
6mer-2-32 (RRLCRK) | 139
6mer-2-180 (RLRLKR) | 142
6mer-2-57 (KQRCRR) | 139
6mer-2-122 (RVITKK) | 125

Same assay, conditions: SPR, Resonance Units; 5mer Bottom sequence (bottom combinations); peptides tested at 10 μM

Substance | Binding affinity [Ru]
5mer-607 (RIEER) | 25
5mer-985 (RDPKR) | 17
5mer-773 (RPNMR) | 25
5mer-745 (RMEIK) | 14
5mer-691 (KEWEK) | 16
5mer-756 (RCDWR) | 18
5mer-976 (RETNR) | 16
5mer-1028 (RMAMR) | 28
5mer-1108 (RNPIR) | 19
5mer-649 (RYSFK) | 20
5mer-616 (KFCPR) | 15
5mer-958 (RKWKR) | 11
5mer-952 (KTMHK) | 12
5mer-789 (KFWIR) | 12
5mer-1007 (RDMMR) | 30
5mer-1090 (KISGK) | 31
5mer-956 (KPTWK) | 19

Same assay, conditions: SPR, Resonance Units; peptides tested at 10 μM; 6mer-1 Bottom sequence

Substance | Binding affinity [Ru]
6mer-1-1157 (RKESVR) | 36
6mer-1-1027 (KKPWHK) | 22
6mer-1-1007 (RKPTDR) | 39
6mer-1-1017 (KRANMK) | 37
6mer-1-1100 (KRMSHK) | 43
6mer-1-1090 (KKTMWR) | 27

Same assay, conditions: SPR, Resonance Units; peptides tested at 10 μM; 6mer-1 Bottom sequence (Table 11)

Substance | Binding affinity [Ru]
6mer-1-761 (RKETFR) | 33
6mer-1-630 (KRMEPR) | 14
6mer-1-640 (RRNCWR) | 25
6mer-1-749 (RKPHWR) | 33
6mer-1-637 (RRFEFK) | 33
6mer-1-737 (RRKNAR) | 27

Same assay, conditions: SPR, Resonance Units; peptides tested at 10 μM; 6mer-2 Bottom sequence

Substance | Binding affinity [Ru]
6mer-2-725 (KAHMKK) | 25
6mer-2-693 (KNTIRR) | 16
6mer-2-614 (KAWIRR) | 19
6mer-2-861 (KDTDRK) | 21
6mer-2-828 (RMKKKR) | 32
6mer-2-658 (RYWVKK) | 23
6mer-2-724 (KYTMKK) | 24
6mer-2-680 (KNHGKR) | 15
6mer-2-981 (RCEIRK) | 32
6mer-2-804 (RNCGKR) | 21
6mer-2-702 (KEMIKR) | 18
6mer-2-945 (KKCERK) | 42
6mer-2-967 (RTSNKK) | 35
6mer-2-660 (RHKDRK) | 16
6mer-2-647 (KTEPKR) | 19
6mer-2-644 (REPNRR) | 12
6mer-2-821 (RPTMKR) | 33
6mer-2-714 (KIDVRK) | 30

Same assay, conditions: SPR, Resonance Units; peptides tested at 10 μM; 6mer-2 Top sequence

Substance | Binding affinity [Ru]
6mer-2-567 (KLYYRK) | 146
6mer-2-559 (KGQLRR) | 121
6mer-2-568 (KGFQKK) | 142
6mer-2-418 (RVQYKK) | 121
6mer-2-437 (KQVCKK) | 121
6mer-2-535 (KLFCRR) | 133
6mer-2-493 (KGVRRK) | 123
6mer-2-598 (KVFRRR) | 146

Same assay, conditions: SPR, Resonance Units; peptides tested at 10 μM; 6mer-2 Top sequence (Table 12)

Substance | Binding affinity [Ru]
6mer-2-350 (RGQTRK) | 148
6mer-2-232 (KQFTRK) | 135
6mer-2-238 (RRRRRK) | 142
6mer-2-203 (KSRTKR) | 135
6mer-2-391 (KQYQKR) | 141

Same assay, conditions: SPR, peptides at 10 μM; 6mer-2 Bottom sequence

Substance | Binding affinity [Ru]
6mer-2-1061 (KPPIKK) | 38
6mer-2-1051 (RKHMRR) | 24
6mer-2-1173 (KCCNKK) | 38
6mer-2-1003 (KPEWKR) | 42
6mer-2-1094 (KAWERK) | 43
6mer-2-1028 (KPEHRR) | 41
6mer-2-1129 (RITGKR) | 42

Same assay, conditions: SPR, peptides tested at 10 μM; 5mer Top sequence

Substance | Binding affinity [Ru]
5mer-78 (KVICK) | 79
5mer-475 (RRFCK) | 56
5mer-501 (KLQRK) | 78
5mer-508 (KGLQK) | 67
5mer-199 (KRYQR) | 84
5mer-409 (KQIYK) | 62
5mer-317 (RRVQR) | 86
5mer-350 (KSYYK) | 59
5mer-24 (KSQCR) | 67
5mer-176 (RVLYK) | 52
5mer-151 (RVFTK) | 66
5mer-75 (KVQTK) | 63

Same assay, conditions: SPR, peptides tested at 10 μM; 5mer Top sequence (top combinations)

Substance | Binding affinity [Ru]
5mer-539 (RVVTR) | 70
5mer-529 (RVQSR) | 84
5mer-266 (KSYQK) | 66
5mer-558 (RWRYK) | 84
5mer-592 (RWLCR) | 56
5mer-568 (KQITR) | 64
5mer-545 (KGQYR) | 80
5mer-275 (KVYTR) | 64

Same assay, conditions: SPR, peptides tested at 10 μM; 6mer-1 Bottom sequence

Substance | Binding affinity [Ru]
6mer-1-1198 (RRATER) | 28

Same assay, conditions: SPR, peptides tested at 10 μM; 6mer-1 Bottom sequence (Table 11)

Substance | Binding affinity [Ru]
6mer-1-901 (RKPNGR) | 35
6mer-1-994 (KKHEFR) | 37
6mer-1-946 (RRCEPR) | 31
6mer-1-957 (KKPPDK) | 43
6mer-1-838 (KRNTWK) | 17
6mer-1-879 (RRYNNR) | 27
6mer-1-979 (RRYWEK) | 42
6mer-1-933 (RRPWNR) | 28

Same assay, conditions: SPR, peptides tested at 10 μM; 6mer-1 Top sequence

Substance | Binding affinity [Ru]
6mer-1-574 (RKSYLR) | 148
6mer-1-464 (RRQRLK) | 131
6mer-1-544 (KRVICR) | 149
6mer-1-1405 (KKVQTR) | 148
6mer-1-426 (KKGQYR) | 131
6mer-1-446 (RRVIRR) | 124
6mer-1-535 (RRVILK) | 139
6mer-1-404 (KKQRQK) | 137
6mer-1-408 (KRGRSR) | 147

Same assay, conditions: SPR, peptides tested at 10 μM; 6mer-1 Top sequence (top combinations)

Substance | Binding affinity [Ru]
6mer-1-184 (KRQICR) | 139
6mer-1-163 (KRLQTK) | 147
6mer-1-11 (KRQFTK) | 139
6mer-1-111 (RKVICR) | 144
6mer-1-52 (RRRFLR) | 131
6mer-1-192 (KRQYQR) | 127
6mer-1-200 (RKLYQR) | 142
6mer-1-91 (RKQQCK) | 131

Same assay, conditions: SPR; XRRGVRR-7mer and RRGVRRX-7mer

Substance | Binding affinity, values relative to the RRGVRR sequence
3647 (IRRGVRR) [compound 3647] | 126
3657 (RRRGVRR) [compound 3657] | 185
3644 (CRRGVRR) [compound 3644] | 128

Same assay, conditions: SPR; XRRQRR-6mer and RRQRRX-6mer

Substance | Binding affinity, relative value to the RRQRR sequence
3622 (RRQRRA) [compound 3622] | 113
3604 (CRRQRR) [compound 3604] | 123

Same assay, conditions: SPR; peptides tested at 10 μM; 5mer Bottom sequence

Substance | Binding affinity [Ru]
5mer-1115 (KEPEK) | 27
5mer-1164 (RFPWR) | 33
5mer-1126 (KPTHK) | 26
5mer-860 (RCHAK) | 31
5mer-1173 (KECKR) | 30
5mer-1123 (KYEKR) | 24
5mer-1132 (KFSMK) | 19
5mer-1177 (KIPVR) | 20
5mer-1141 (REEVR) | 26
5mer-885 (RHCNR) | 19
5mer-826 (KCKMK) | 11
5mer-843 (KTTPK) | 17
